The values below are quoted from earlier work in paper PMC6447450.

The data set concerns the target Mcl-1 (Homo sapiens) (UniProt Q07820).

Sequence of Mcl-1 (Homo sapiens) (Q07820 whole entry): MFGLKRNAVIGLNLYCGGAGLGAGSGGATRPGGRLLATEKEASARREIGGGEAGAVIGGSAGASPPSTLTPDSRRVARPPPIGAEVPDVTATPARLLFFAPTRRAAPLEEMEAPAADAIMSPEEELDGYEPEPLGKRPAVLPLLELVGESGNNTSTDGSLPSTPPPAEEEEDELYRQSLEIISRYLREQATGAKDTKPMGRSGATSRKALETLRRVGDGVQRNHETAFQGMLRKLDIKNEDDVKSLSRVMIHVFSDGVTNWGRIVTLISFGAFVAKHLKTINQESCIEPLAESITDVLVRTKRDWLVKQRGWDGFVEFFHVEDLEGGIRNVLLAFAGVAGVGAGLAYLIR
Sequence of native BH3 peptide (BIM, 2PQK) BH3 (O43521 143-165): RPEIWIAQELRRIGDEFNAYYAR

As to “native BH3 peptide (BIM, 2PQK) BH3 (from UniProt O43521)”, the Kd (as a rule, the equilibrium constant for the complex coming apart) was 1 nM.
